Measured values: paper PMC2735045

Target: CsrA-His6 (Escherichia coli, UniProt P69913 1-61)
Experiment: EMSA

CsrA-His6, sequence (P69913 whole entry): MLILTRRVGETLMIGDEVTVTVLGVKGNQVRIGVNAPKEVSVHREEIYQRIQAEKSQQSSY

B1: ycdT transcript (-36 to +20) (ssRNA)
RNA: GGGAAAGGGAUCUACAACCUACAGAUUGGUGUAGCUUUAUGGAAAAAGACUAUUUGAG
Kd: 2.6 ± 0.3 nM

B2: ydeH transcript (-29 to +25) (ssRNA)
RNA: GGGCACAAGGAACUGUGAAAAAGGAGUGGCAAUGAUCAAGAAGACAACGGAAAUUG
Kd: 2.3 ± 0.1 nM
